Assay results published in paper PMC9020658, “Mechanism of RNA polymerase I selection by transcription factor UAF”.

B1: DNA-110/-40 (downstream) (dsDNA)
DNA 1: AGAGCGACAGAGAGGGCAAAAGAAAATAAAAGTAAGATTTTAGTTTGTAATGGGAGGGGGGGTTTAGTCAT
DNA 2: ATGACTAAACCCCCCCTCCCATTACAAACTAAAATCTTACTTTTATTTTCTTTTGCCCTCTCTGTCGCTCT
B2: DNA-180/-110 (upstream) (dsDNA)
DNA 1: ATATACGCTAAGATTTTTGGAGAATAGCTTAAATTGAAGTTTTTCTCGGCGAGAAATACGTAGTTAAGGCA
DNA 2: TGCCTTAACTACGTATTTCTCGCCGAGAAAAACTTCAATTTAAGCTATTCTCCAAAAATCTTAGCGTATAT

Experiments:
[1] = molecular target: T1, UAF (Rrn5-Rrn9-Rrn10-Uaf30-H3-H4) (Saccharomyces cerevisiae? (budding …, UniProt Q02983;P53437;P38204;Q08747;P61830;P02309 1-363;1-365;1-145;1-228;1-136;1-103)); test: filter binding; two repeats; text assigns tight Kd to -110/-40, fig. S7 legend order of the DNAs appears swapped; 30 mM Hepes-NaOH pH 7.5, 30 mM sodium citrate pH 6.0, 250 mM KCl, 2 mM DTT; filter binding 1 h at 4 C; footprinting on ice, then 2.5 mM MgCl2, 0.5 mM CaCl2, DNa
[2] = molecular target: T1, UAF (Rrn5-Rrn9-Rrn10-Uaf30-H3-H4); test: filter binding; fitted Kd only in figure; legend order of the DNAs appears swapped; 30 mM Hepes-NaOH pH 7.5, 30 mM sodium citrate pH 6.0, 250 mM KCl, 2 mM DTT; filter binding 1 h at 4 C; footprinting on ice, then 2.5 mM MgCl2, 0.5 mM CaCl2, DNa

Row | Binder | Kd [1] | fold decrease in affinity [2]
1 | B1 | 20.4 nM | –
2 | B2 | – | ~5 fold lower affinity than DNA-110/-40
